Data on 19 molecules can be found in US20230140797A1 (published 2023).

Assay [1] concerns the target T1, human FcγRIIb extracellular domain with C-terminal His tag (human, UniProt P31994 43-217).
T1 sequence (looked up): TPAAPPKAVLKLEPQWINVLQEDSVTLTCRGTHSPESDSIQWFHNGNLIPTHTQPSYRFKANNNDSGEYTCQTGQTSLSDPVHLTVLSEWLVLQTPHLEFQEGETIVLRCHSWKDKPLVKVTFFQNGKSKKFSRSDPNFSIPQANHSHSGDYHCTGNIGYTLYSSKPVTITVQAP
The assay can be described thus: Biacore SPR. A general note: Surface plasmon resonance follows binding to a sensor surface in real time, without labels.

The target in assay [2] is T2, human FcγRIIa type R extracellular domain with C-terminal His tag (human, UniProt P12318 34-217).
T2 sequence (looked up): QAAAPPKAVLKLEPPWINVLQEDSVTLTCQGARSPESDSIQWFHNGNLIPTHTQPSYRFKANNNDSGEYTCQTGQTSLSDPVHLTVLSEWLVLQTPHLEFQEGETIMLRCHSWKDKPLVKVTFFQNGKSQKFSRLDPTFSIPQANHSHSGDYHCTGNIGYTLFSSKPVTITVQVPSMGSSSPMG
As to the kind of experiment: Biacore SPR.

The target in assay [3] is T3, human FcγRIIa type H extracellular domain with C-terminal His tag (human, UniProt P12318 34-217).
T3 sequence (looked up): T2 sequence (looked up) with R134H
As to the kind of experiment: SPR.

The target of assay [4] is human FcγRIa extracellular domain with C-terminal His tag (human, UniProt P12314 16-292). The assay can be described thus: SPR.
Target sequence in this assay (P12314 16-292): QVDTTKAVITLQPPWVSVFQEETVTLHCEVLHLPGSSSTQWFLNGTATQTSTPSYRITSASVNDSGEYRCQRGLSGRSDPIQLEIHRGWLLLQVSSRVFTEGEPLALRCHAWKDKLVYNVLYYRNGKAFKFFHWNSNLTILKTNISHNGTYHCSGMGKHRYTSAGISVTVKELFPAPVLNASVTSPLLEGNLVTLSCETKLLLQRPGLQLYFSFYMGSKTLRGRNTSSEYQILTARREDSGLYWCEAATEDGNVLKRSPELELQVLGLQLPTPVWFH
Assay [5] has as its target T4, human FcγRIIb extracellular domain with C-terminal His tag (human, UniProt P31994 43-217).
T4 sequence (looked up): T1 sequence (looked up)
As to the kind of experiment: SPR Biacore, ratio of KDs.

For assay [6], the target named is T5, human FcγRIIa type H extracellular domain with C-terminal His tag (human, UniProt P12318 34-217).
T5 sequence (looked up): T2 sequence (looked up) with R134H
The assay can be described thus: SPR Biacore, KD by Equation 2.

Assay [7] has as its target T6, human FcγRIIb extracellular domain with C-terminal His tag (human, UniProt P31994 43-217).
T6 sequence (looked up): T1 sequence (looked up)
As to the kind of experiment: ratio of SPR KD values.

Assay [8] deals with T7, human FcγRIIb extracellular domain with C-terminal His tag (human, UniProt P31994 43-217).
T7 sequence (looked up): T1 sequence (looked up)
As to the kind of experiment: SPR.

Assay [9] deals with T7, human FcγRIIb extracellular domain with …. As to the kind of experiment: SPR. The source holds these as a separate data set.
Assay [10] deals with T8, human FcγRIIa type R extracellular domain with C-terminal His tag (human, UniProt P12318 34-217).
T8 sequence (looked up): T2 sequence (looked up)
As to the kind of experiment: SPR.

The target in assay [11] is T9, human FcγRIIa type H extracellular domain with C-terminal His tag (human, UniProt P12318 34-217).
T9 sequence (looked up): T2 sequence (looked up) with R134H
The assay can be described thus: SPR. This is another data set of the same source.

Assay [12] concerns the target T7, human FcγRIIb extracellular domain with …. The assay can be described thus: SPR. This is another data set of the same source.
Assay [13] addresses T10, human FcγRIIa type R extracellular domain with C-terminal His tag (human, UniProt P12318 34-217).
T10 sequence (looked up): T2 sequence (looked up)
The assay can be described thus: SPR Biacore, kinetic fit.

For assay [14], the target named is T7, human FcγRIIb extracellular domain with …. The assay can be described thus: SPR. The source holds these as a separate data set.
In assay [15] the target is T11, human FcγRIIIa type V extracellular domain with C-terminal His tag (human, UniProt P08637 17-208). As to the kind of experiment: SPR.
T11 sequence (P08637 17-208 F176V): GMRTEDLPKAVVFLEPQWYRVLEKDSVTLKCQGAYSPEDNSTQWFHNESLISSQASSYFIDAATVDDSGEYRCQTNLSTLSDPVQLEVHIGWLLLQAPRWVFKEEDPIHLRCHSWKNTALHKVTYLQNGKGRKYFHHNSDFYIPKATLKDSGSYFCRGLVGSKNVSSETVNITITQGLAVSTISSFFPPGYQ
Assay [16] deals with T12, human FcγRIIa type R (131Arg) extracellular domain with C-terminal His tag (human, UniProt P12318 34-217).
T12 sequence (looked up): T2 sequence (looked up)
The assay can be described thus: SPR.

The target of assay [17] is T13, human FcγRIIa type H (131His) extracellular domain with C-terminal His tag (human, UniProt P12318 34-217).
T13 sequence (looked up): T2 sequence (looked up) with R134H
As to the kind of experiment: SPR.

Assay [18] addresses T11, human FcγRIIIa type V extracellular …. The assay can be described thus: SPR. This is another data set of the same source.
Assay [19] has as its target T12, human FcγRIIa type R (131Arg) …. As to the kind of experiment: ratio of SPR KDs.
Assay [20] has as its target T14, human FcγRIIa type R extracellular domain with C-terminal His tag (human, UniProt P12318 34-217).
T14 sequence (looked up): T2 sequence (looked up)
The assay can be described thus: SPR. The source holds these as a separate data set.

For assay [21], the target named is human FcγRIa extracellular domain with C-terminal His tag (human, UniProt P12314 16-292). As to the kind of experiment: SPR. The source holds these as a separate data set.
Target sequence in this assay (P12314 16-292): as the sequence (P12314 16-292) above
Assay [22] addresses human FcγRIIIa type V extracellular domain with C-terminal His tag (human, UniProt P08637 17-208). As to the kind of experiment: SPR. This is another data set of the same source.
Target sequence in this assay (P08637 17-208 F176V): as the sequence (P08637 17-208 F176V) above
The target of assay [23] is T15, human FcγRIIa type H extracellular domain with C-terminal His tag (human, UniProt P12318 34-217).
T15 sequence (looked up): T2 sequence (looked up) with R134H
As to the kind of experiment: SPR. This is another data set of the same source.

Assay [24] addresses T6, human FcγRIIb extracellular domain with …. As to the kind of experiment: SPR. This is another data set of the same source.

A word on the Kd: it is the equilibrium constant for the complex coming apart.

Changes are numbered by the printed parent chain. Where two headings read alike, the source gives them in different places.

B1: IL6R-BP478/IL6R-L (antibody)
heavy: QVQLQESGPGLVKPSETLSLTCAVSGHSISHDHAWSWVRQPPGEGLEWIGFISYSGITNYNPSLQGRVTISRDNSKNTLYLQMNSLRAEDTAVYYCARSLARTTAMDYWGEGTLVTVSSASTKGPSVFPLAPCSRSTSESTAALGCLVKDYFPEPVTVSWNSGALTSGVHTFPAVLQSSGLYSLSSVVTVPSSSLGTKTYTCNVDHKPSNTKVDKRVESKYGPPCPPCPAPDLLGDDSVFLFPPKPKDTLMISRTPEVTCVVVDVSDEDGEVKFNWYVDGVEVHNAKTKPREEQDNSTYRVVSVLTVLHQDWLNGKEYKCKVSNKALPRPIEKTISKAKGQPREPQVYTLPPSRDELTKNQVSLTCLVKGFYPSDIAVEWESNGQPENNYKTTPPVLDSDGSFFLYSKLTVDKSRWQQGNVFSCSVMHEALHNHYTQESLSLSP
light: not shown
For B1, the “fold binding against IL6R-BP230/IL6R-L” value in [1] was 1.1 times; in assay [2], 0.9 times.

B2: IL6R-BP179/IL6R-L (antibody, human IgG1, kappa)
heavy: QVQLQESGPGLVKPSETLSLTCAVSGHSISHDHAWSWVRQPPGEGLEWIGFISYSGITNYNPSLQGRVTISRDNSKNTLYLQMNSLRAEDTAVYYCARSLARTTAMDYWGEGTLVTVSSASTKGPSVFPLAPSSKSTSGGTAALGCLVKDYFPEPVTVSWNSGALTSGVHTFPAVLQSSGLYSLSSVVTVPSSSLGTQTYICNVNHKPSNTKVDKKVEPKSCDKTHTCPPCPAPELLGDDSVFLFPPKPKDTLMISRTPEVTCVVVDVSHEDGEVKFNWYVDGVEVHNAKTKPREEQYNSTYRVVSVLTVLHQDWLNGKEYKCKVSNAALPKPIEKTISKAKGQPREPQVYTLPPSRDELTKNQVSLTCLVKGFYPSDIAVEWESNGQPENNYKTTPPVLDSDGSFFLYSKLTVDKSRWQQGNVFSCSVMHEALHNHYTQESLSLSP
light: not shown
Take B2: in assay [3], the Kd is 18 µM.

B3: IL6R-BP266/IL6R-L (antibody, human IgG1, kappa)
heavy: B2 heavy with E235D, H270E, A328K, K332R
light: not shown
In assay [4], B3 had a Kd of 1.4 µM.

B4: IL6R-BP107/IL6R-L (antibody, human IgG1, kappa)
heavy: B2 heavy with D239G, H270E, G273P, A328K, K332A
light: not shown
Turning to B4, the “KD (IIb) of the parent polypeptide/KD (IIb) of the altered polypeptide” value (“KD (IIb) of the parent polypeptide/KD” below) in [5] was 3.3 fold (parent IL6R-B3/IL6R-L). The same molecule came in with a Kd in assay [6] of 32 µM.

B5: IL6R-BP198/IL6R-L (antibody, human IgG1, kappa)
heavy: B2 heavy with E235D, L236Y, D239G, H270D
light: not shown
Turning to B5, the “KD (IIb) of the parent polypeptide/KD” value in [7] came to 15.7 fold.

B6: IL6R-BP559/IL6R-L (antibody, human IgG1, kappa)
heavy: B2 heavy with D239G, V266I, S269A, H270E, E274D, Y298D, A328K, K332A
light: not shown
On to B6, for which, in assay [8], the “KD (IIaH)/KD (IIb)” value was 712. For the same molecule, in assay [9], the “KD (IIaR)/KD (IIb)” value is 58.4. Moreover, the equilibrium dissociation constant (Kd) in [10] came out at 0.016 µM.

B7: IL6R-BP269/IL6R-L (antibody, human IgG1, kappa)
heavy: B2 heavy with H270E, Y298D, A328K, K332A
light: not shown
Take B7: binding in assay [4] was put at a Kd of 1.4 µM.

B8: IL6R-BP540/IL6R-L (antibody, human IgG1, kappa)
heavy: B2 heavy with V266I, H270E, E274P, Y298D, A328K, K332R
light: not shown
Take B8: the “KD (IIaH)/KD (IIb)” value in assay [8] was determined as 803. Moreover, in [9], the “KD (IIaR)/KD (IIb)” value came out at 36.8. Moreover, in assay [11], binding was characterised by a dissociation constant (Kd) of 4.8 µM.

B9: IL6R-BP181/IL6R-L (antibody, human IgG1, kappa)
heavy: B2 heavy with E235D, D239G
light: not shown
With B9, in assay [3], binding was put at a Kd of 28 µM.

B10: BP505 (antibody, human IgG1, kappa)
heavy: B2 heavy with E235D, V266I, S269A, H270E, E274D, A328K, K332A
light: not shown
Take B10: the “KD (IIaH)/KD (IIb)” value in assay [8] was found to be 514. The “KD (IIaR)/KD (IIb)” value in assay [9] was 20. In [12], this molecule gave a Kd of 2.1 µM.

B11: IL6R-BP119/IL6R-L (antibody, human IgG1, kappa)
heavy: B2 heavy with D239G, G273P, A328M, K332A
light: not shown
As to B11, the “KD (IIb) of the parent polypeptide/KD” value in assay [5] was 2.7 fold (parent IL6R-B3/IL6R-L). For the same molecule, in assay [13], the dissociation constant Kd was found to be 0.099 µM.

B12: IL6R-BP538/IL6R-L (antibody, human IgG1, kappa)
heavy: B2 heavy with V266I, H270E, A328K, K332R
light: not shown
With B12, the “KD (IIaH)/KD (IIb)” value in assay [8] is 566. Besides, in assay [14], the “KD (IIb) of parent polypeptide/KD (IIb) of altered polypeptide” value was found to be 507. Besides, in [9], the “KD (IIaR)/KD (IIb)” value was 30.6.

B13: BP564 (antibody, human IgG1, kappa)
heavy: B2 heavy with H270E, E274D, Y298D, A328K, K332R
light: not shown
Consider B13, for which the “KD (IIaH)/KD (IIb)” value in assay [8] is 454. In assay [9], the “KD (IIaR)/KD (IIb)” value turned out to be 26.2. Besides, in [12], the affinity, expressed as Kd, was 0.0022 µM.

B14: IL6R-BP120/IL6R-L (antibody, human IgG1, kappa)
heavy: B2 heavy with D239G, G273P, A328E, K332A
light: not shown
B14: the “KD (IIb) of the parent polypeptide/KD” value in [5] is 3 fold (parent IL6R-B3/IL6R-L). Besides, the Kd in assay [13] stood at 5.6 µM.

B15: IL6R-BP253/IL6R-L (antibody, human IgG1, kappa)
heavy: B2 heavy with D239G, D240P, S269E, G273P, A328K, L330F, K332A
light: not shown
With B15, the Kd in [15] came out at 3.8 µM.

B16: IL6R-BP497/IL6R-L (antibody, human IgG1, kappa)
heavy: B2 heavy with E235D, V266I, S269A, H270E, A328K, A329G, K332R
light: not shown
As for B16, the values for the Kd in [16], in assay [17] and in [18] were 0.035 µM, 0.85 µM and 20 µM, respectively. The “KD (IIaR) of parent polypeptide/KD (IIaR) of altered polypeptide” value in assay [19] came to 12.9.

B17: IL6R-2B171/IL6R-L (antibody, human IgG1, kappa)
heavy: B2 heavy with D239G, G273P, V325L, A328K, K332A
light: not shown
Consider B17, for which the “KD (IIb) of the parent polypeptide/KD” value in assay [5] was 2.9 fold (parent IL6R-B3/IL6R-L). In addition, binding in [6] was characterised by a dissociation constant (Kd) of 340 µM.

B18: IL6R-BP192/IL6R-L (antibody, human IgG1, kappa)
heavy: B2 heavy with E235D, D239G, H270D, Y298D, A328K
light: not shown
In the case of B18, the Kd was determined as 2.5 µM in [20] and 0.0065 µM in assay [21].

B19: IL6R-BP199/IL6R-L (antibody, human IgG1, kappa)
heavy: B2 heavy with E235D, D239G, G273P, K332R
light: not shown
On to B19, for which the “KD (IIb) of the parent polypeptide/KD” value in [7] was 6.3 fold. Besides, the Kd in assay [22] turned out to be 61 µM; in assay [23], 28 µM; in assay [21], 0.0064 µM; in assay [24] it was 0.49 µM.
